The source of these data is patent US20210077575A1, “NANOPARTICLES FOR THE TARGETED DELIVERY OF THERAPEUTIC POLYPEPTIDES” (Cedars-Sinai Medical Center, priority 2018, published 2021).

The data set can be described thus: Nanoparticle size by dynamic light scattering (Example 2). It counts as physicochemical. The note with it: distribution by number; FIG. 2D-F, GeloninD10 series. The method, then:
The composition comprising the HerPBK10-GFPD10 nanoparticles and the composition comprising the HerPBK10-GeloninD10 were then subjected to dynamic light scattering (DLS) to determine the diameter of the resulting nanoparticles. Solutions of GFPD10 (no HerPBK10), GeloninD10 (no HerPBK10) and HerPBK10 (no GFPD10 or GeloninD10) were also measured by DLS.

B1: GeloninD10: cytotoxic polypeptide gelonin with a C-terminal deca-aspartic acid tag (protein)
chain: GLDTVSFSTKGATYITYVNFLNELRVKLKPEGNSHGIPLLRKKCDDPGKCFVLVALSNDNGQLAEIAIDVTSVYVVGYQVRNRSYFFKDAPDAAYEGLFKNTIKTRLHFGGSYPSLEGEKAYRETTDLGIEPLRIGIKKLDENAIDNYKPTEIASSLLVVIQMVSEAARFTFIENQIRNNFQQRIRPANNTISLENKWGKLSFQIRTSGANGMFSEAVELERANGKKYYVTAVDQVKPKIALLKFVDKDPKDDDDDDDDDD
Regarding B1, the “diameter / measured size (DLS)” value is “about 2.9 nm”.
